B1: glmS ribozyme (parent)
chain: AUAAAAGCGCCAGAACUACAGAAAUGUAGUUGACGAGGAGGAGGUUUAUCGAAUUUUCGGCGGAUGCCUCCAAA

± gives the standard error. This sample holds only a part of the variants without activity.

Holding throughout (conditions): with glucosamine-6-phosphate
Variants of B1 are the subject of data set [1]. Kind of data set: self-cleavage kobs at 40 uM GlcN6P; higher = faster cleavage; RNA array. Summed up: (§1)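 Ribozyme variants carrying barcodes were transcribed in situ on sequenced MiSeq chips by E. coli RNA polymerase and tracked at 37 °C with a hybridised Cy3 probe. They were exposed to 40 μM to 10 mM glucosamine-6-phosphate in HEPES/KCl/Mg(OAc)2 buffer. kobs came from exponential decay fits of normalised per-tile medians, and kcat and KM from weighted Michaelis–Menten fits.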

Variants of B1 are the subject of data set [2]. Kind of data set: self-cleavage kobs at 160 uM GlcN6P; higher = faster cleavage; RNA array. Summed up:
as §1

Variants of B1 are the subject of data set [3]. The data set can be described thus: self-cleavage kobs at 640 uM GlcN6P; higher = faster cleavage; RNA array. The method in brief: as §1
Data set [4] covers variants of B1. Kind of data set: self-cleavage kobs at 2500 uM GlcN6P; higher = faster cleavage; RNA array. The method in brief:
as §1

In data set [5] the parent is B1. Kind of data set: self-cleavage kobs at 10000 uM GlcN6P; higher = faster cleavage; RNA array. The method in brief: as §1

As for AUAAAAGCGCCAGAACUACAGAAAUGUAGUUGACGAGGAGGAGGUUUAUCGAAUUUCCGGUGGAUGCCUCCAAA [U57C C61U], the “self-cleavage kobs at 40 uM GlcN6P” value in data set [1] is below 1e-05 s⁻¹. Moreover, the “self-cleavage kobs at 160 uM GlcN6P” value in data set [2] is below 1e-05 s⁻¹. In data set [3], the “self-cleavage kobs at 640 uM GlcN6P” value was below 1e-05 s⁻¹. For the same variant, in data set [4], the “self-cleavage kobs at 2500 uM GlcN6P” value was below 1e-05 s⁻¹. Moreover, the “self-cleavage kobs at 10000 uM GlcN6P” value in data set [5] is below 1e-05 s⁻¹.
For AUAAAAGCGCCAGAACUACAGAAAUGUAGUUGACGAGGAGGAGGUUUAUCGAAUUGUCGGCGGAUGCCCCCAAA [U56G U69C], the “self-cleavage kobs at 40 uM GlcN6P” value in data set [1] was determined as 0.000126 ± 1.8e-05 s⁻¹. Besides, the “self-cleavage kobs at 160 uM GlcN6P” value in data set [2] amounted to 0.000192 ± 6.9e-05 s⁻¹. Also, in data set [3], the “self-cleavage kobs at 640 uM GlcN6P” value worked out at 0.000627 ± 0.00011 s⁻¹. The “self-cleavage kobs at 2500 uM GlcN6P” value in data set [4] came out at 0.00118 ± 0.00041 s⁻¹. The “self-cleavage kobs at 10000 uM GlcN6P” value in data set [5] is 0.00475 ± 0.0011 s⁻¹.
Take AUAAAAGCACCAGAACUACAGAAAUGUACUUCACGAGGAGGAGGCUUAUCGACUUUUCGGCGGAUGCCUCCAAA [G9A G29C G32C U45C A53C]: the “self-cleavage kobs at 40 uM GlcN6P” value in data set [1] was below 1e-05 s⁻¹.
Take AUAAAAGGGCCAGAACUACAGAAAUGUAGUUGACGAGGAGGAGGUUUAUCGAAUUUUCGGCAGAUGCCUCCAAA [C8G G62A]: the “self-cleavage kobs at 40 uM GlcN6P” value in data set [1] was below 1e-05 s⁻¹. Further, the “self-cleavage kobs at 2500 uM GlcN6P” value in data set [4] was below 1e-05 s⁻¹.
Turning to AUAAAAGCGCCAGAACUACAGAAAUGUAGUUGACGAGGAGGAGGUUUAUCGAAUUUUCGGCGGUUGCCUCAAAA [A64U C71A], in data set [1], the “self-cleavage kobs at 40 uM GlcN6P” value was below 1e-05 s⁻¹. In addition, in data set [5], the “self-cleavage kobs at 10000 uM GlcN6P” value came out at 3.22e-05 ± 1.4e-05 s⁻¹.
For the variant AUAAAAGCGCCAGAACUACAGAAAUGUAGUUGACGAGGAGCAGGUUUAUCGAAUUUUCGACGGAUGCCUCCAAA [G41C G60A], the “self-cleavage kobs at 40 uM GlcN6P” value in data set [1] is below 1e-05 s⁻¹. Moreover, the “self-cleavage kobs at 640 uM GlcN6P” value in data set [3] is below 1e-05 s⁻¹. In addition, the “self-cleavage kobs at 10000 uM GlcN6P” value in data set [5] was below 1e-05 s⁻¹.
For the variant AUAAAAGUGACAGAACUACAGAAAUGUAGUUGACGAGGACGAGGUUUAUCGAAUUUUCGGCGGAUGACUCCAAA [C8U C10A G40C C67A], the “self-cleavage kobs at 40 uM GlcN6P” value in data set [1] is below 1e-05 s⁻¹.
For AUAAAAGCGCCAGAACUACAGAAAUGUAGUUGACGUGGAGGAGUUUUAUCGAAUUUUCGGCGGAUGCCUCCAAA [A36U G44U], the “self-cleavage kobs at 40 uM GlcN6P” value in data set [1] is below 1e-05 s⁻¹. Further, in data set [2], the “self-cleavage kobs at 160 uM GlcN6P” value was below 1e-05 s⁻¹. Further, the “self-cleavage kobs at 640 uM GlcN6P” value in data set [3] was below 1e-05 s⁻¹. For the same variant, in data set [4], the “self-cleavage kobs at 2500 uM GlcN6P” value was below 1e-05 s⁻¹. Further, the “self-cleavage kobs at 10000 uM GlcN6P” value in data set [5] is below 1e-05 s⁻¹.
AUAAAAGCGCCAGAACUACAGAAAUGUAGUUGACGAGCAGGAGGUUUAGCGCAUUUUCGGCGGAUGCCUCCAAA [G38C U49G A52C]: in data set [1], the “self-cleavage kobs at 40 uM GlcN6P” value was below 1e-05 s⁻¹. In data set [4], the “self-cleavage kobs at 2500 uM GlcN6P” value is below 1e-05 s⁻¹.
AUAAAAGCGCGAGAACUACAGAAAUGUAGUUGACGAGGGGGAGGCUUAUCGAAUUUUCGACGGAUUCCUCCAAA [C11G A39G U45C G60A G66U]: in data set [1], the “self-cleavage kobs at 40 uM GlcN6P” value was below 1e-05 s⁻¹.
The same measure, in the same setting: under AUAAAGGCGCCCGAACUACAGAAAUGUAGUUGACAAGGAGUAGGUUUAUCGAAUUUUCGGCGGAUGCCUCAAAA [A6G A12C G35A G41U C71A] stands below 1e-05 s⁻¹; under AUAAAAGCGCCAGAACUACAGAAAUGUAAUUGAUGAGGAGGAGGUUUAUCGAAUUUUCGGCGGAUGCCUCCAAA [G29A C34U], below 1e-05 s⁻¹; under AUAAAAGCGCCAGAACUACAGAAAUGUAGUUGACGAGAAGGAGGUUUAGCGUAUUUUCGGCGGAUGCCUCCAAA [G38A U49G A52U], below 1e-05 s⁻¹.
Same read-out and setting: under AUAAAUGCGCCAGACCUACAGAAAUGUAGUUAACGAGGAGGAGGUUUAUCGAAUUUUCGGCGCUUGCCUCCAAA [A6U A15C G32A G63C A64U] stands below 1e-05 s⁻¹.
In the case of AUAAACGCGCCAGAACUACAGAAAUGUAGUUGACGAGGAGGAGGUUUAUCGAAUUUGCGGCGGAUGCCUCCAAA [A6C U57G], in data set [1], the “self-cleavage kobs at 40 uM GlcN6P” value is below 1e-05 s⁻¹. The “self-cleavage kobs at 640 uM GlcN6P” value in data set [3] is below 1e-05 s⁻¹.
In the case of AUAAAAGCGCCAGAGCUACAGAAAUGUAGUUGACGAGGAGGAGGUUUACCGAAUUUUCGGCGGAUGCCUCCAAA [A15G U49C], the “self-cleavage kobs at 40 uM GlcN6P” value in data set [1] is below 1e-05 s⁻¹. Further, the “self-cleavage kobs at 640 uM GlcN6P” value in data set [3] is below 1e-05 s⁻¹.
For AUAAAAGGGCCAGAACUACAGAAAUGUAGUUGAAGAGGAGGAGGUUUAUCGAAUUUUCGGCGGAUGCCUCCAAA [C8G C34A], the “self-cleavage kobs at 40 uM GlcN6P” value in data set [1] was below 1e-05 s⁻¹. Moreover, in data set [2], the “self-cleavage kobs at 160 uM GlcN6P” value was below 1e-05 s⁻¹. The “self-cleavage kobs at 2500 uM GlcN6P” value in data set [4] was below 1e-05 s⁻¹. For the same variant, in data set [5], the “self-cleavage kobs at 10000 uM GlcN6P” value is below 1e-05 s⁻¹.
Turning to AUAAAGGCGCCAGAACUACAGAAAUGUAGUUGACGAGGAGGACGUUUAUCGAAUUUUCGGCGGAUGCCUCCAAA [A6G G43C], the “self-cleavage kobs at 40 uM GlcN6P” value in data set [1] was below 1e-05 s⁻¹. Moreover, in data set [2], the “self-cleavage kobs at 160 uM GlcN6P” value is below 1e-05 s⁻¹. Besides, the “self-cleavage kobs at 640 uM GlcN6P” value in data set [3] is below 1e-05 s⁻¹. Moreover, the “self-cleavage kobs at 2500 uM GlcN6P” value in data set [4] is below 1e-05 s⁻¹. Also, the “self-cleavage kobs at 10000 uM GlcN6P” value in data set [5] was below 1e-05 s⁻¹.
As to AUAAAAGCGCCAGAACUACAGAAAUGUAGUUGACGAGGAGCAGGUUUAUCGACUUUUCGGAGGAUGCCUCCAAA [G41C A53C C61A], the “self-cleavage kobs at 40 uM GlcN6P” value in data set [1] is below 1e-05 s⁻¹. Further, the “self-cleavage kobs at 10000 uM GlcN6P” value in data set [5] is below 1e-05 s⁻¹.
For AUAAAAGCGCCAGAAGUACAGAAAUGUAGUUGACAAGGAGGAGGUUUAUCGAAUUGUCGGCGCAUGCCUCCAAA [C16G G35A U56G G63C], the “self-cleavage kobs at 40 uM GlcN6P” value in data set [1] is below 1e-05 s⁻¹. Also, in data set [5], the “self-cleavage kobs at 10000 uM GlcN6P” value was below 1e-05 s⁻¹.
As to AUAAAAGCGCCAGAACUACAGAAAUGUAGUUGACGAGUAGGAGGUUUAUCGAAUUGUCGGCGGAUGCCUCCAAA [G38U U56G], the “self-cleavage kobs at 40 uM GlcN6P” value in data set [1] was below 1e-05 s⁻¹. Also, in data set [4], the “self-cleavage kobs at 2500 uM GlcN6P” value is below 1e-05 s⁻¹. The “self-cleavage kobs at 10000 uM GlcN6P” value in data set [5] is below 1e-05 s⁻¹.
Regarding AUAAAAGUGCCAGAGCUACAGAAAUGUAGUUGACGAGGAGGAGGUUUAUCGAAUUUUCGGCGGAUGCCUCCAAA [C8U A15G], in data set [1], the “self-cleavage kobs at 40 uM GlcN6P” value is below 1e-05 s⁻¹. Further, the “self-cleavage kobs at 160 uM GlcN6P” value in data set [2] is below 1e-05 s⁻¹. Besides, the “self-cleavage kobs at 640 uM GlcN6P” value in data set [3] is below 1e-05 s⁻¹. Further, the “self-cleavage kobs at 10000 uM GlcN6P” value in data set [5] was below 1e-05 s⁻¹.
As for AUAAAAGCGCCAGAACUACAGAAAUGUAGUUGAGGAGGAGGAGGUUUAUCGAAUUUGCGGCGGAUGCCUCCAAA [C34G U57G], in data set [1], the “self-cleavage kobs at 40 uM GlcN6P” value is below 1e-05 s⁻¹. For the same variant, the “self-cleavage kobs at 160 uM GlcN6P” value in data set [2] was below 1e-05 s⁻¹. Further, the “self-cleavage kobs at 640 uM GlcN6P” value in data set [3] was below 1e-05 s⁻¹. For the same variant, the “self-cleavage kobs at 10000 uM GlcN6P” value in data set [5] was below 1e-05 s⁻¹.
With AUAAAAGCGCCAGAACUACAGAAAUGUAGUUGACGAGGAGGAGGUUUAUCGAAUUUUCGGUGGAUGCGUACAAA [C61U C68G C70A], in data set [1], the “self-cleavage kobs at 40 uM GlcN6P” value was below 1e-05 s⁻¹.
On to AUAAAAGCGCCAGAACUACAGAAAUGUAAUUGACGAGGAGGAGGUUUAUCGAAUUCUCAGCGGAUGCCUCAAAA [G29A U56C G59A C71A], for which, in data set [1], the “self-cleavage kobs at 40 uM GlcN6P” value is below 1e-05 s⁻¹. For the same variant, in data set [5], the “self-cleavage kobs at 10000 uM GlcN6P” value was below 1e-05 s⁻¹.
As to AUAAAAGCGCCAGAACUACAGAAAUGUAGUUGACGAGGAGGAGGAUUAUCGAAUUUUCGGCUGAUGCCUCCAAA [U45A G62U], the “self-cleavage kobs at 40 uM GlcN6P” value in data set [1] is below 1e-05 s⁻¹. Besides, in data set [2], the “self-cleavage kobs at 160 uM GlcN6P” value was below 1e-05 s⁻¹. The “self-cleavage kobs at 640 uM GlcN6P” value in data set [3] was below 1e-05 s⁻¹. For the same variant, in data set [4], the “self-cleavage kobs at 2500 uM GlcN6P” value is below 1e-05 s⁻¹.
On to AUAAAAGCGCCAUAACUACAGAAAUGUAGUUGACGAGGAGGAGGUUUAUCGAAUUUUAGGCGGAUGCCUCCAAA [G13U C58A], for which the “self-cleavage kobs at 40 uM GlcN6P” value in data set [1] was 4.24e-05 ± 1.8e-05 s⁻¹. The “self-cleavage kobs at 160 uM GlcN6P” value in data set [2] came out at 7.4e-05 ± 1.6e-05 s⁻¹. The “self-cleavage kobs at 640 uM GlcN6P” value in data set [3] amounted to 0.000326 ± 5.2e-05 s⁻¹. In addition, the “self-cleavage kobs at 2500 uM GlcN6P” value in data set [4] turned out to be 0.000524 ± 8.1e-05 s⁻¹. In addition, in data set [5], the “self-cleavage kobs at 10000 uM GlcN6P” value was 0.00176 ± 0.00026 s⁻¹.
Regarding AUAAAAGCGACAGAACUACAGAAAUGUAGUUGACGAGGAGGAGGUUUAUCGAAUUUUCGGCCGAUGCCUCCAAA [C10A G62C], the “self-cleavage kobs at 40 uM GlcN6P” value in data set [1] was below 1e-05 s⁻¹. The “self-cleavage kobs at 160 uM GlcN6P” value in data set [2] is below 1e-05 s⁻¹. Moreover, the “self-cleavage kobs at 640 uM GlcN6P” value in data set [3] is below 1e-05 s⁻¹.

The record behind these values is the supplement of paper PMC7125110.
